Paper PMC9482650, “Quantitative fragmentomics allow affinity mapping of interactomes” (Nature Communications, 2022)
One block for each binder: values may come before it.

How the values were obtained:
Test in all cases: holdup assay
Design in all cases: key: below the threshold = too weak to quantify, mostly under pKd 3.1 to 4
APBA2_1, Q99767 = biological target: T1, APBA2_1, Q99767
T1 sequence (Q99767 563-664, limits assumed, looked up): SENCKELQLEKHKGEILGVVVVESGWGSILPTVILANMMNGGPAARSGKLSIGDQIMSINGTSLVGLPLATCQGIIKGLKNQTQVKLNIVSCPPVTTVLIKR

SNTB1, Q13884 = biological target: T2, SNTB1, Q13884
T2 sequence (Q13884 107-205, limits assumed, looked up): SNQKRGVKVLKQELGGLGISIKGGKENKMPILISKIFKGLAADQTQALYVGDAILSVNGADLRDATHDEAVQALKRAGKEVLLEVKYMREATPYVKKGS

PICK1, Q9NRD5 = biological target: PICK1, Q9NRD5
GRIP1_3, Q9Y3R0 = biological target: T3, GRIP1_3, Q9Y3R0
T3 sequence (Q9Y3R0 247-346, limits assumed, looked up): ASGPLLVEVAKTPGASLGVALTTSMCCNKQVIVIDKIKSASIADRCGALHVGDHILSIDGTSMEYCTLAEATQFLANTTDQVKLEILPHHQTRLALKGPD

Inadl_9, Q8NI35 = biological target: Inadl_9, Q8NI35
LIN7B, Q9HAP6 = biological target: T4, LIN7B, Q9HAP6
T4 sequence (Q9HAP6 88-185, limits assumed, looked up): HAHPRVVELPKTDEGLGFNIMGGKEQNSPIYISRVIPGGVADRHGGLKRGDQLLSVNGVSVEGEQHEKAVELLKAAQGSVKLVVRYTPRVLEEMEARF

Inadl_5, Q8NI35 = biological target: Inadl_5, Q8NI35
LNX1_3, Q8TBB1 = biological target: LNX1_3, Q8TBB1
DLG1_1, Q12959 = biological target: DLG1_1, Q12959
PDZD2_2, O15018 = biological target: T5, PDZD2_2, O15018
T5 sequence (O15018 329-429, limits assumed, looked up): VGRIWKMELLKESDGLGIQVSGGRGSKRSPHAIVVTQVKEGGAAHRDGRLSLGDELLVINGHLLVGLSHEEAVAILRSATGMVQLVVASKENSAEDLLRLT

AHNAK1, Q09666 = biological target: AHNAK1, Q09666
PDZRN4_1, Q6ZMN7 = biological target: PDZRN4_1, Q6ZMN7
NHERF4_1, Q86UT5-2 = biological target: NHERF4_1, Q86UT5-2
Inadl_10, Q8NI35 = biological target: Inadl_10, Q8NI35
DLG3_2, Q92796 = biological target: T6, DLG3_2, Q92796
T6 sequence (Q92796 221-321, limits assumed, looked up): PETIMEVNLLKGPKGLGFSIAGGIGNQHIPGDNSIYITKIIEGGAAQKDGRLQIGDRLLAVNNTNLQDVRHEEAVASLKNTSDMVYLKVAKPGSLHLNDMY

GORASP1, Q9BQQ3 = biological target: GORASP1, Q9BQQ3
GRIP1_4, Q9Y3R0 = biological target: T7, GRIP1_4, Q9Y3R0
T7 sequence (Q9Y3R0 467-571, limits assumed, looked up): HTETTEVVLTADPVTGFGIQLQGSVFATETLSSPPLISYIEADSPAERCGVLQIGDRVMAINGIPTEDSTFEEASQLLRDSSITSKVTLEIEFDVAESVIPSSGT

MPP7, Q5T2T1 = biological target: T8, MPP7, Q5T2T1
T8 sequence (Q5T2T1 134-230, limits assumed, looked up): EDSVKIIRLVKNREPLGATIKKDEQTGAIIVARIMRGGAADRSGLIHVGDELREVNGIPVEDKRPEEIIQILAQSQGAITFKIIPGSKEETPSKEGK

HTRA3, P83110 = biological target: T9, HTRA3, P83110
T9 sequence (P83110 354-453, limits assumed, looked up): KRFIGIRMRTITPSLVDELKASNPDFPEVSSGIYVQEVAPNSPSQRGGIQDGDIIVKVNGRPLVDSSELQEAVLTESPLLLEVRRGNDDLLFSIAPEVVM

DLG2_3, Q15700 = biological target: DLG2_3, Q15700
PCLO, Q9Y6V0 = biological target: T10, PCLO, Q9Y6V0
T10 sequence (Q9Y6V0 4491-4600, limits assumed, looked up): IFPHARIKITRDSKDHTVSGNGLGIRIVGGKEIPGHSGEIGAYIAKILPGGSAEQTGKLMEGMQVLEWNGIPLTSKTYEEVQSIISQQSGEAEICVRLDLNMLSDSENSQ

GRIP1_7, Q9Y3R0 = biological target: T11, GRIP1_7, Q9Y3R0
T11 sequence (Q9Y3R0 999-1096, limits assumed, looked up): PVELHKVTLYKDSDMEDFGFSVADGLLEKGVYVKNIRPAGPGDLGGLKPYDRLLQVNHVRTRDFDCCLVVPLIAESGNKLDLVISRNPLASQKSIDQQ

DFNB31_1, Q9P202 = biological target: T12, DFNB31_1, Q9P202
T12 sequence (Q9P202 135-233, limits assumed, looked up): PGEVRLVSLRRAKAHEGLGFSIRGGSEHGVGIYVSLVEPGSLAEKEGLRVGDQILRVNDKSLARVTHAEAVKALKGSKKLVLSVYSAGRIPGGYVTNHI

Inadl_1, Q8NI35 = biological target: Inadl_1, Q8NI35
SCRIB_3, Q14160 = biological target: SCRIB_3, Q14160
DLG1_2, Q12959 = biological target: DLG1_2, Q12959
[1] = plain residues with an end cap or a label only (N-terminal biotin on a linker: ado-ado)
[2] = plain residues with an end cap or a label only (N-terminal biotin on a linker: ttds)
[3] = plain residues with an end cap or a label only (N-terminal biotin on a linker: ahx)

Sequence of SCRIB_3, Q14160 (Q14160 999-1103): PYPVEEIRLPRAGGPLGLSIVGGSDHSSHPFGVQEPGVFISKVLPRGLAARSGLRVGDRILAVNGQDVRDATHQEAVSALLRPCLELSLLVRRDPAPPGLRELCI
Sequence of NHERF4_1, Q86UT5-2 (Q86UT5 other isoform, or with tags, fused parts or gaps): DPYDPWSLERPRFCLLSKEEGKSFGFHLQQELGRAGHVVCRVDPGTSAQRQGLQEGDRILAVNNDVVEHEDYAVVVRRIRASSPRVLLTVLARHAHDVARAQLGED
Sequence of PICK1, Q9NRD5 (Q9NRD5 17-115): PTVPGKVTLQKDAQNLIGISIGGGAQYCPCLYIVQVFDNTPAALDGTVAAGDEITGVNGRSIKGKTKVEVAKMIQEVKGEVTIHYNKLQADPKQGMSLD
Sequence of Inadl_10, Q8NI35 (Q8NI35 1673-1763): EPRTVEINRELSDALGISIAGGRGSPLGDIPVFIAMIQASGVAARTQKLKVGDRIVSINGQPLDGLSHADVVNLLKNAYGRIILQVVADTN
Sequence of GORASP1, Q9BQQ3 (Q9BQQ3 1-208): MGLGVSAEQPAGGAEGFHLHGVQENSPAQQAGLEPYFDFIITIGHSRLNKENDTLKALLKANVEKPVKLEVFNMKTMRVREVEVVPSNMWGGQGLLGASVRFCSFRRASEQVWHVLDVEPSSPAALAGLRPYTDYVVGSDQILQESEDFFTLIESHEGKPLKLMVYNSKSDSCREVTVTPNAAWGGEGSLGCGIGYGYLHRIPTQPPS
Sequence of PDZRN4_1, Q6ZMN7 (Q6ZMN7 213-318): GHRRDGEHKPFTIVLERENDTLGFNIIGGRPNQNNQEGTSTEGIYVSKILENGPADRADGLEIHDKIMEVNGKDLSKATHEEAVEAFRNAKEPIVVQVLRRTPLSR
Sequence of Inadl_9, Q8NI35 (Q8NI35 1530-1615): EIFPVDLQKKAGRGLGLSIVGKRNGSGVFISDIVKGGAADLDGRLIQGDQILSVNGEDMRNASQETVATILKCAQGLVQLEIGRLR
Sequence of Inadl_1, Q8NI35 (Q8NI35 113-229): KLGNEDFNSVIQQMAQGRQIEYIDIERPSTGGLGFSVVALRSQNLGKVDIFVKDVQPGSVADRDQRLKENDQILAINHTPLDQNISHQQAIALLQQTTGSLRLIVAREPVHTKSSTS
Sequence of Inadl_5, Q8NI35 (Q8NI35 673-780): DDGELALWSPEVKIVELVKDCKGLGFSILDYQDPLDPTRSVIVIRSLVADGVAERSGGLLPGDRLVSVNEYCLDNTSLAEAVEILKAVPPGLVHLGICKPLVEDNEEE
Sequence of LNX1_3, Q8TBB1 (Q8TBB1 500-596): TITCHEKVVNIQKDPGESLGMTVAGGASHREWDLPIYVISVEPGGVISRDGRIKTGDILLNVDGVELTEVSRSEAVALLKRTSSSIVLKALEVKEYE

B2: DGKK, Q5KSL6 (peptide)
chain: DPLTPSRSQL
pKd (APBA2_1, Q99767; [2]): below the threshold
pKd (SNTB1, Q13884; [2]): below the threshold
pKd (PICK1, Q9NRD5; [2]): below the threshold
pKd (GRIP1_3, Q9Y3R0; [2]): below the threshold
pKd (Inadl_9, Q8NI35; [2]): below the threshold
pKd (LIN7B, Q9HAP6; [2]): below the threshold
pKd (Inadl_5, Q8NI35; [2]): below the threshold
pKd (LNX1_3, Q8TBB1; [2]): below the threshold
pKd (DLG1_1, Q12959; [2]): 4.01
pKd (PDZD2_2, O15018; [2]): below the threshold
pKd (AHNAK1, Q09666; [2]): below the threshold
pKd (PDZRN4_1, Q6ZMN7; [2]): below the threshold
pKd (NHERF4_1, Q86UT5-2; [2]): 3.81
pKd (Inadl_10, Q8NI35; [2]): below the threshold
pKd (DLG3_2, Q92796; [2]): below the threshold
pKd (GORASP1, Q9BQQ3; [2]): below the threshold
pKd (GRIP1_4, Q9Y3R0; [2]): below the threshold
pKd (MPP7, Q5T2T1; [2]): below the threshold
pKd (HTRA3, P83110; [2]): below the threshold
pKd (DLG2_3, Q15700; [2]): 3.73
pKd (PCLO, Q9Y6V0; [2]): below the threshold
pKd (GRIP1_7, Q9Y3R0; [2]): below the threshold
pKd (DFNB31_1, Q9P202; [2]): below the threshold
pKd (Inadl_1, Q8NI35; [2]): below the threshold
pKd (SCRIB_3, Q14160; [2]): 3.5
pKd (DLG1_2, Q12959; [2]): below the threshold

B3: CBP, Q92793 (peptide)
chain: TGDTLEKFVEGL
pKd (APBA2_1, Q99767; [2]): below the threshold
pKd (SNTB1, Q13884; [2]): below the threshold
pKd (PICK1, Q9NRD5; [2]): below the threshold
pKd (GRIP1_3, Q9Y3R0; [2]): below the threshold
pKd (Inadl_9, Q8NI35; [2]): below the threshold
pKd (LIN7B, Q9HAP6; [2]): below the threshold
pKd (Inadl_5, Q8NI35; [2]): below the threshold
pKd (LNX1_3, Q8TBB1; [2]): below the threshold
pKd (DLG1_1, Q12959; [2]): below the threshold
pKd (PDZD2_2, O15018; [2]): below the threshold
pKd (AHNAK1, Q09666; [2]): below the threshold
pKd (PDZRN4_1, Q6ZMN7; [2]): below the threshold
pKd (NHERF4_1, Q86UT5-2; [2]): 3.71
pKd (Inadl_10, Q8NI35; [2]): below the threshold
pKd (DLG3_2, Q92796; [2]): below the threshold
pKd (GORASP1, Q9BQQ3; [2]): below the threshold
pKd (GRIP1_4, Q9Y3R0; [2]): below the threshold
pKd (MPP7, Q5T2T1; [2]): below the threshold
pKd (HTRA3, P83110; [2]): below the threshold
pKd (DLG2_3, Q15700; [2]): below the threshold
pKd (PCLO, Q9Y6V0; [2]): below the threshold
pKd (GRIP1_7, Q9Y3R0; [2]): below the threshold
pKd (DFNB31_1, Q9P202; [2]): below the threshold
pKd (Inadl_1, Q8NI35; [2]): below the threshold
pKd (SCRIB_3, Q14160; [2]): below the threshold
pKd (DLG1_2, Q12959; [2]): below the threshold

B4: APC, P25054 (peptide)
chain: HSGSYLVTSV
pKd (APBA2_1, Q99767; [3]): below the threshold
pKd (SNTB1, Q13884; [3]): 4.05
pKd (PICK1, Q9NRD5; [3]): below the threshold
pKd (GRIP1_3, Q9Y3R0; [3]): below the threshold
pKd (Inadl_9, Q8NI35; [3]): below the threshold
pKd (LIN7B, Q9HAP6; [3]): below the threshold
pKd (Inadl_5, Q8NI35; [3]): below the threshold
pKd (LNX1_3, Q8TBB1; [3]): below the threshold
pKd (DLG1_1, Q12959; [3]): 4.6
pKd (PDZD2_2, O15018; [3]): 4.43
pKd (AHNAK1, Q09666; [3]): below the threshold
pKd (PDZRN4_1, Q6ZMN7; [3]): below the threshold
pKd (NHERF4_1, Q86UT5-2; [3]): below the threshold
pKd (Inadl_10, Q8NI35; [3]): 3.64
pKd (DLG3_2, Q92796; [3]): 5.07
pKd (GORASP1, Q9BQQ3; [3]): 3.61
pKd (GRIP1_4, Q9Y3R0; [3]): below the threshold
pKd (MPP7, Q5T2T1; [3]): below the threshold
pKd (HTRA3, P83110; [3]): below the threshold
pKd (DLG2_3, Q15700; [3]): 4.67
pKd (PCLO, Q9Y6V0; [3]): below the threshold
pKd (GRIP1_7, Q9Y3R0; [3]): below the threshold
pKd (DFNB31_1, Q9P202; [3]): 3.93
pKd (Inadl_1, Q8NI35; [3]): below the threshold
pKd (SCRIB_3, Q14160; [3]): 4.45
pKd (DLG1_2, Q12959; [3]): 5.21

The next lines start with the values.

pKd (APBA2_1, Q99767; [1]): below the threshold
pKd (SNTB1, Q13884; [1]): 4.51
pKd (PICK1, Q9NRD5; [1]): below the threshold
pKd (GRIP1_3, Q9Y3R0; [1]): below the threshold
pKd (Inadl_9, Q8NI35; [1]): below the threshold
pKd (LIN7B, Q9HAP6; [1]): 3.89
pKd (Inadl_5, Q8NI35; [1]): below the threshold
pKd (LNX1_3, Q8TBB1; [1]): below the threshold
pKd (DLG1_1, Q12959; [1]): 4.39
pKd (PDZD2_2, O15018; [1]): 3.76
pKd (AHNAK1, Q09666; [1]): below the threshold
pKd (PDZRN4_1, Q6ZMN7; [1]): below the threshold
pKd (NHERF4_1, Q86UT5-2; [1]): 3.8
pKd (Inadl_10, Q8NI35; [1]): below the threshold
pKd (DLG3_2, Q92796; [1]): 4.68
pKd (GORASP1, Q9BQQ3; [1]): 3.53
pKd (GRIP1_4, Q9Y3R0; [1]): below the threshold
pKd (MPP7, Q5T2T1; [1]): below the threshold
pKd (HTRA3, P83110; [1]): below the threshold
pKd (DLG2_3, Q15700; [1]): 4.54
pKd (PCLO, Q9Y6V0; [1]): below the threshold
pKd (GRIP1_7, Q9Y3R0; [1]): below the threshold
pKd (DFNB31_1, Q9P202; [1]): 4.78
pKd (Inadl_1, Q8NI35; [1]): below the threshold
pKd (SCRIB_3, Q14160; [1]): 4.48
pKd (DLG1_2, Q12959; [1]): 4.92
B1: NCBP2L, A6PVI3 (peptide)
chain: RGGFGRQTQI

pKd (APBA2_1, Q99767; [1]): below the threshold
pKd (SNTB1, Q13884; [1]): below the threshold
pKd (PICK1, Q9NRD5; [1]): below the threshold
pKd (GRIP1_3, Q9Y3R0; [1]): below the threshold
pKd (Inadl_9, Q8NI35; [1]): 4.41
pKd (LIN7B, Q9HAP6; [1]): 3.59
pKd (Inadl_5, Q8NI35; [1]): 4.55
pKd (LNX1_3, Q8TBB1; [1]): 3.99
pKd (DLG1_1, Q12959; [1]): below the threshold
pKd (PDZD2_2, O15018; [1]): 4.5
pKd (AHNAK1, Q09666; [1]): below the threshold
pKd (PDZRN4_1, Q6ZMN7; [1]): below the threshold
pKd (NHERF4_1, Q86UT5-2; [1]): below the threshold
pKd (Inadl_10, Q8NI35; [1]): below the threshold
pKd (DLG3_2, Q92796; [1]): below the threshold
pKd (GORASP1, Q9BQQ3; [1]): 4.12
pKd (GRIP1_4, Q9Y3R0; [1]): below the threshold
pKd (MPP7, Q5T2T1; [1]): 4.79
pKd (HTRA3, P83110; [1]): 4.64
pKd (DLG2_3, Q15700; [1]): below the threshold
pKd (PCLO, Q9Y6V0; [1]): below the threshold
pKd (GRIP1_7, Q9Y3R0; [1]): 4.55
pKd (DFNB31_1, Q9P202; [1]): below the threshold
pKd (Inadl_1, Q8NI35; [1]): 3.51
pKd (SCRIB_3, Q14160; [1]): below the threshold
pKd (DLG1_2, Q12959; [1]): below the threshold
B5: NRXN3_rs746444206, Q9Y4C0 (peptide)
chain: QKNKDKEYYV
